B1: LINE1-mini (parent)
chain: GGCAGAGCUCAACACAGCGUGGCAAAGUGGCUGUGGCUAGACUGCC

Variants of: B1
Experiment: self-cleavage, relative activity (ratio to wild type); higher = more cleavage; in vitro, sequencing; the parent is a self-cleaving ribozyme

Variant | self-cleavage
C13G C31U | 0.13
G21A C23G | 0.78
U28G G35U | 0.09
A4U A25C | 0.08
G7A A14C | 0.5
G1A U38A | 1.36
C31G A41U | 0.09
U20A G35A | 0.1
U20G C31U | 0.11
A12G U38C | 0.04
G5A G40C | 0.04
C13A G44A | 0.09
G5U G36A | 0.33
A11U G17A | 0.04
G21A G22C | 0.38
G33A C37A | 0.12
G22A C31G | 0.1
G7U C23U | 0.06
A6C G33A | 0.06
U34G G44U | 0.07
U9C G27U | 0.04
G27U C46A | 1.11
U38G G40U | 0.05
C8G A24C | 0.09

Variant | self-cleavage
G17C C37A | 0.07
U28G C46G | 0.99
A6C G21U | 0.44
A4U G29A | 0.2
G5A G27U | 0.08
A16G A25U | 0.31
U28A C42G | 0.02
G5A U32C | 0.07
U9C A41C | 0.04
C8U C42U | 0.17
U43A G44U | 0.18
C10U U34G | 0.32
A26C U32A | 0.14
A11C U38C | 0.04
G22C C23G | 0.28
A16G G21A | 0.7
A6G G36A | 0.13
A12C A39G | 0
G1C G44C | 0.03
G5U U34A | 0.04
G1C C45U | 0.15
A11C G40A | 0.02
A14U A41C | 0.06
A26C G40C | 0.07

Variant | self-cleavage
G22A C23U | 1.14
C3G U28A | 0.22
A14U C46G | 0.19
G19A A41C | 0.08
C3A C23G | 0.45
G5U G33A | 0.04
G21A C37U | 0.07
A25G G40C | 0.06
A14U C23A | 0.65
C3U G44A | 1.07
U9A G40A | 0.19
A26U G44A | 0.64
A25G C31U | 0.13
G7U C37G | 0.01
C13U C45G | 0.06
A25U C37A | 0.06
G22A G44C | 0.23
G2A G22A | 0.8
A16G U38G | 0.01
A25U G27U | 0.74
G22U U43A | 0.06
A4U G35A | 0.14
G21U U28A | 0.51
A14C U34A | 0.07

Variant | self-cleavage
G5A G40U | 0.1
G1C U34G | 0.02
G17A C46A | 0.14
A4G G35A | 0.15
A25G A26G | 0.34
G35A C42U | 0.09
A24G C45G | 0.22
C13U U28A | 0.49
U32C G36C | 0.04
G5U C46A | 0.11
C10A A12G | 0.02
U20A G29U | 0.45
A14G C15U | 0.11
C13G G22A | 0.21
C18A G36U | 0.07
G22A G36C | 0.13
A16C C42G | 0.09
G1C U34A | 0.01
A4U C37U | 0.15
A14U C31G | 0.04
G29A U34G | 0.38
A12U C23G | 0.26
G2C G40A | 0.09
G29A G40C | 0.08

Variant | self-cleavage
G30U C45U | 1.11
C23G A24C | 0.41
C13G G33A | 0.11
C31U G36U | 0.06
A12U U34C | 0.03
G27U C37U | 0.07
A12U U43C | 0.14
C8U A39C | 0.2
U9A A41U | 0.28
G17U U43A | 0.09
G27C G35A | 0.09
U28G U43G | 0
U9G G19A | 0.18
G7C C42U | 0.09
A11G C23U | 0.02
G2U A26U | 0.11
C8U G17C | 0.16
G2A G35C | 0.34
G29C G40U | 0.07
C18G C23A | 0.64
G2A C10A | 0.07
G5A C18G | 0.09
C18U G27C | 0.55
C15A A39C | 0.06

Variant | self-cleavage
A6G A24G | 0.12
G29U G30C | 0.69
A11C C42G | 0.03
A26G G29U | 1.23
C31U U38G | 0.05
U20A G29A | 0.51
G22U A41C | 0.04
G29U G36U | 0.05
G17C C45G | 0.56
C18G G44C | 0.1
G21A G44C | 0.52
G22A G35U | 0.14
A16C G29U | 0.55
G35C C42U | 0.05
C23U C31A | 0.24
G2A C8G | 0.13
C23U G35C | 0.1
A11U C31U | 0.1
A12C A16G | 0.02
G17A U38C | 0.12
C3U G17A | 0.1
C18U C45U | 1.45
U20A A41C | 0.05
A4G A11U | 0.05

Variant | self-cleavage
G7U C18U | 0.14
A11G A25G | 0.05
A4U C10G | 0.06
G7U C45A | 0.16
U9A C42U | 0.15
G36U | 0.08
A11G A24G | 0.02
G5C C31A | 0.08
C23U U32C | 0.61
G21U G40U | 0.18
A6G C10G | 0.02
C10G G29U | 0.08
G19A G40C | 0.07
G5C G40A | 0.1
U9G U34C | 0.06
G5C G19A | 0.14
G5A C46A | 0.11
C10A G30C | 0.08
G33U | 0.11
C8G U20A | 0.08
G40A C45U | 0.16
A16C C46U | 0.08
A16G U32A | 0.07
A14C | 0.12

Variant | self-cleavage
G7U C42U | 0.12
C10U A12C | 0.02
U20G U38A | 0.2
G7C C42A | 0.08
C10A U20C | 0.06
A12G A24C | 0.02
U20A | 0.68
G33C U38G | 0.03
G2C U28C | 0.09
C8U C23U | 0.25
U20G C45U | 1.62
C10U U20G | 0.18
G21C C37G | 0.05
C8U A39G | 0.05
G1A G35C | 0.1
A6C G30C | 0.2
C10G U34A | 0.03
G35A U38C | 0.06
U32G C46U | 0.17
A12C G29U | 0.02
G5U A41G | 0.06
U28G G44C | 0.54
U34C C42U | 0.12
C8A A41U | 0.48

Variant | self-cleavage
G40U C46G | 0.06
A12U G36A | 0.04
C15A A16U | 0.06
A24G G30U | 2.49
U9A A12C | 0.03
U38C C46U | 0.44
G1U G33A | 0.04
G19U G29C | 0.64
A25C U28G | 0.65
C10A A39U | 0.24
C13G U20A | 0.13
C37G A39G | 0.02
C42A C45G | 0.21
C15U A26C | 1.74
C18G G22U | 0.87
C8A U38C | 0.2
C13G C45G | 0.23
A4C A26C | 0.1
G30A U34G | 0.11
A24U U32G | 0.12
U9C A25G | 0.04
C18G | 0.52
A25U C46A | 1.01
G7C A26C | 0.6

Variant | self-cleavage
C13G G35U | 0.85
A26U A41U | 0.75
G27C U34A | 0.2
G33C G44U | 0.04
C37G U38G | 0.01
U32G C46G | 0.1
A6G G22A | 0.11
C18U C37G | 0.04
C23A G30U | 1.16
G17C G35C | 0.04
A6U G44C | 0.75
G17A C46U | 0.15
C18A G27A | 1.47
G17C U38G | 0.03
C8U C46U | 0.56
G29A A39C | 0.21
U20G | 0.69
G1A A41U | 0.97
G17A U38A | 0.21
A12C G19U | 0.03
C18U C46U | 1.43
G2C A41C | 0.12
C23A C45A | 1.12
C13A G27U | 0.08

Variant | self-cleavage
A4U U20G | 0.09
C15G G17A | 0.05
U20G C42U | 0.17
U28C C45A | 1.7
G17C U34A | 0.07
G5U C10A | 0.03
U20C U43C | 0.09
G1A G17C | 0.18
A24G G36C | 0.11
G22C G30U | 0.53
G21C U34A | 0.12
A11C G40U | 0.02
A6G G27U | 0.08
C10G G27A | 0.14
G19U U34C | 0.17
U9C G33A | 0.06
A12G A24G | 0.03
G1A C46A | 2.61
C15G U38C | 0.03
A14C C45U | 0.08
A24C A26U | 0.43
A4U A39G | 0.07
G5A A26G | 0.1
G29C U38G | 0.02

Variant | self-cleavage
A14G G22U | 0.98
G35U G36A | 0.16
A25G C46G | 0.78
G27C A39C | 0.11
G27C C37A | 0.06
G2U A14G | 0.08
A11U C23A | 0.16
A6U G40C | 0.15
C42U | 0.35
C13A C37G | 0.05
C23U G35U | 0.16
C13A A41C | 0.06
G5C A24U | 0.07
G33C C42U | 0.06
G35U U38C | 0.09
U20G A26G | 0.43
G17U A39G | 0.04
C10A G40A | 0.02
C10U U28G | 0.23
A16G A39U | 0.14
A11U U32G | 0.03
A16C G35U | 0.03
A12C A25G | 0.02
C10G C13A | 0.03

Variant | self-cleavage
A26C U43A | 0.07
A26C U43C | 0.25
C3G U20G | 0.41
U9A G21U | 0.15
G7A C31A | 0.21
G7U G17A | 0.08
C23G C46U | 1
A4G C45A | 0.45
C18A G19U | 0.31
G27U A41G | 0.27
G5C U32C | 0.1
C18A U43C | 0.05
C18U C31A | 0.08
G21U C31U | 0.3
A6C A41G | 1.17
C13G A16G | 0.01
C3A U32A | 0.12
A11U C18U | 0.32
G33C G36C | 0.04
C42G C46A | 0.04
G1C G40C | 0.03
U20C G21A | 0.8
A11G G35A | 0.05
A6U G35U | 0.2

Variant | self-cleavage
C15G A25U | 0.04
A11C A14U | 0.03
G17A U43A | 0.08
G36U A39U | 0.07
C15A U28C | 0.12
G17U C18U | 0.12
A25G G36U | 0.05
G21U C45U | 1.62
U20A C37U | 0.05
C31G C45U | 0.08
U20C G33C | 0.07
U43A G44C | 0.1
G1A G2A | 1.83
G17A C42U | 0.1
U20A G44U | 0.2
G30C A39U | 2.23
A41C C46G | 0.07
A16G U43G | 0.08
G36C U38C | 0.05
C31A G40C | 0.04
A4G A6C | 0.14
G22A G27C | 0.9

Source: the RNAGym collection of RNA variant scans (doi:10.7554/elife.90254)
